# From US20210009703A1
# Molecular target: cynomolgus CD25 expressed on cells (Cynomolgus monkey) (UniProt H6WS54)
# Assay: flow cytometry on cyno-CD25-CHO-S cells, 100 nM antibody, anti-human R-PE
substance,measurement,value
IgG1 Isotype (antibody),MFI,82
